{"source": "patent US20140170149A1", "about": "(Genmab, published 2014)", "key": {"[1]": {"molecular_target": "T1, human CD3 protein complex (human, UniProt P07766 23-207; P09693 23-182; P04234 22-171; P20963 22-164)", "T1 construct": "whole, on cells; also called CD3 on Jurkat cells", "T1 sequence (P07766 23-207, form in doubt, chain 1 of 4)": "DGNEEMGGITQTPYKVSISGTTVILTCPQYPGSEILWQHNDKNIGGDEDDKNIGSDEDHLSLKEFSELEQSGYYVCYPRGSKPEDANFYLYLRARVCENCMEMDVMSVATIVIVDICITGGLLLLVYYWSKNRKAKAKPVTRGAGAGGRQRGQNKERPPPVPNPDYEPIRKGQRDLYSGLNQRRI", "T1 sequence (P09693 23-182, form in doubt, chain 2 of 4)": "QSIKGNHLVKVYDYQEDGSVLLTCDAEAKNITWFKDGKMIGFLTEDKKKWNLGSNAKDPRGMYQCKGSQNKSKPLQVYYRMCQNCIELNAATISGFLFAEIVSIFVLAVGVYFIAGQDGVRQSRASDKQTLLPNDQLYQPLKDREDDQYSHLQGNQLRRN", "T1 sequence (P04234 22-171, form in doubt, chain 3 of 4)": "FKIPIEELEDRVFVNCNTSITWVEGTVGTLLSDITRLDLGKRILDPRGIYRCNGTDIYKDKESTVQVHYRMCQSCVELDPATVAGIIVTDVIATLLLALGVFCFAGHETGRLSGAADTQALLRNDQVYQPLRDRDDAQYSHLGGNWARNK", "T1 sequence (P20963 22-164, form in doubt, chain 4 of 4)": "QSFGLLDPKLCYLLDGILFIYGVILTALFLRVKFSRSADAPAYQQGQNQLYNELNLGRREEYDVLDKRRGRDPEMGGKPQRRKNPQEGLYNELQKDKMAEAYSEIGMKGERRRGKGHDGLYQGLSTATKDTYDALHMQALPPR", "experiment": "flow cytometry on Jurkat cells (CD3-expressing T cell line), MFI (PE) (Example 21)"}, "[2]": {"molecular_target": "T1, human CD3 protein complex", "experiment": "flow cytometry on Jurkat cells (CD3-expressing T cell line), MFI (PE) (Example 21)", "remark": "listed apart in the source"}, "[3]": {"molecular_target": "T2, human epidermal growth factor receptor 2 (HER2) (human, UniProt P04626 23-1255)", "T2 construct": "whole, on cells; One entry for endogenous HER2 on tumor cell lines and for the fully human construct hu-HER2 on CHO-S cells; also called ErbB-2; hu-HER2", "experiment": "flow cytometry on CHO-S cells transiently transfected with hu-HER2, PE-goat anti-human IgG, MFI (Example 24)"}, "[4]": {"molecular_target": "T2, human epidermal growth factor receptor …", "experiment": "flow cytometry on AU565 cells (high HER2), PE-goat anti-human IgG, MFI; EC50 by non-linear regression (Example 12)", "procedure": "(§1) Binding of HER2 antibodies was detected using a Phycoerythrin (PE)-conjugated goat-anti-human IgG antibody (Jackson). […] EC₅₀ values were determined by means of non-linear regression (sigmoidal dose-response with variable slope) using GraphPad Prism V4.03 software (GraphPad Software, San Diego, Calif., USA)."}, "[5]": {"molecular_target": "T2, human epidermal growth factor receptor …", "experiment": "cell-based or functional assay"}, "[6]": {"molecular_target": "T2, human epidermal growth factor receptor …", "experiment": "flow cytometry on A431 cells (low HER2), PE-goat anti-human IgG, MFI; EC50 by non-linear regression (Example 12)", "procedure": "as §1"}, "[7]": {"molecular_target": "T1, human CD3 protein complex", "experiment": "flow cytometry on Jurkat cells (CD3-expressing T cell line), MFI (PE) (Example 21)", "remark": "listed apart in the source"}}, "note": "Read-outs that look alike come from different tables or passages of the source.", "data": [{"binder": "IgG1-huOKT3-F405L (antibody, V domains shown, Expressed as IgG1,κ with F405L; also called huOKT3-C114S-gLC; IgG1-OKT3) VH: QVQLVQSGGGVVQPGRSLRLSCKASGYTFTRYTMHWVRQAPGKGLEWIGYINPSRGYTNYNQKVKDRFTISRDNSKNTAFLQMDSLRPEDTGVYFCARYYDDHYSLDYWGQGTPVTVSS VL: DIQMTQSPSSLSASVGDRVTITCSASSSVSYMNWYQQTPGKAPKRWIYDTSKLASGVPSRFSGSGSGTDYTFTISSLQPEDIATYYCQQWSSNPFTFGQGTKLQIT", "values": [{"measurement": "EC50 (read off the curve)", "setting": "[1]", "value": "~0.02", "unit": "µg/mL"}]}, {"binder": "huOKT3-F405L x b12-K409R (bispecific antibody, also called huOKT3 x b12; CD3xb12 control) heavy chain, CD3 arm (huOKT3-C114S-gLC, IgG1-F405L): not shown light chain, CD3 arm: DIQMTQSPSSLSASVGDRVTITCSASSSVSYMNWYQQTPGKAPKRWIYDTSKLASGVPSRFSGSGSGTDYTFTISSLQPEDIATYYCQQWSSNPFTFGQGTKLQIT heavy chain, b12 arm (IgG1-K409R): not shown light chain, b12 arm: EIVLTQSPGTLSLSPGERATFSCRSSHSIRSRRVAWYQHKPGQAPRLVIHGVSNRASGISDRFSGSGSGTDFTLTITRVEPEDFALYYCQVYGASSYTFGQGTKLERK", "values": [{"measurement": "EC50 (read off the curve)", "setting": "[1]", "value": "~3", "unit": "µg/mL"}]}, {"binder": "IgG1-HUM291-F405L (antibody, V domains shown, Expressed as IgG1,κ with F405L; also called visilizumab) VH: QVQLVQSGAEVKKPGASVKVSCKASGYTFISYTMHWVRQAPGQGLEWMGYINPRSGYTHYNQKLKDKATLTADKSASTAYMELSSLRSEDTAVYYCARSAYYDYDGFAYWGQGTLVTVSS VL: DIQMTQSPSSLSASVGDRVTITCSASSSVSYMNWYQQKPGKAPKRLIYDTSKLASGVPSRFSGSGSGTDFTLTISSLQPEDFATYYCQQWSSNPPTFGGGTKVEIK", "values": [{"measurement": "EC50 (read off the curve)", "setting": "[2]", "value": "~0.02", "unit": "µg/mL"}]}, {"binder": "HER2 HuMab 153 (antibody, V domains shown, also called PC1014-153; TH1014-153) VH: QVQLVESGGGVVQPGRSLRLSCAASGFTFSDYVIHWVRQAPGKGLEWVTVISYDGSNKYYADSVKGRFTISRDNSKNTLYLQMNSLSAEDTAMYYCARGGITGTTGVFDYWGQGTLVTVSS VL: DIQMTQSPSSLSASVGDRVTITCRASQGISSWLAWYQQKPEKAPKSLIYDASSLQSGVPSRFSGSGYGTDFSLTISSLQPEDFAIYYCQQYKSYPITFGQGTRLEIK", "values": [{"measurement": "EC50 (read off the curve)", "setting": "[3]", "value": "~0.04", "unit": "µg/mL"}, {"measurement": "EC50", "setting": "[4]", "value": 0.626, "unit": "µg/mL"}, {"measurement": "EC50, fab-CypHer5E internalization assay, AU565 cells", "setting": "[5]", "value": "~0.0149", "unit": "µg/mL"}, {"measurement": "Maximal MFI, fab-CypHer5E internalization assay, AU565 cells", "setting": "[5]", "value": 87500, "unit": "MFI"}, {"measurement": "EC50", "setting": "[6]", "value": 0.244, "unit": "µg/mL"}]}, {"binder": "IgG1-huOKT3-F405L × IgG1-HER2-153-K409R (bispecific antibody, Made by 2-MEA-induced Fab-arm exchange; IgG1,κ; also called huOKT3×153) heavy 1: not shown VL 1: DIQMTQSPSSLSASVGDRVTITCRASQGISSWLAWYQQKPEKAPKSLIYDASSLQSGVPSRFSGSGYGTDFSLTISSLQPEDFAIYYCQQYKSYPITFGQGTRLEIK heavy 2: not shown VL 2: DIQMTQSPSSLSASVGDRVTITCSASSSVSYMNWYQQTPGKAPKRWIYDTSKLASGVPSRFSGSGSGTDYTFTISSLQPEDIATYYCQQWSSNPFTFGQGTKLQIT", "values": [{"measurement": "EC50 (read off the curve)", "setting": "[1]", "value": "~2", "unit": "µg/mL"}]}, {"binder": "IgG1-HUM291-F405L × IgG1-HER2-153-K409R (bispecific antibody, Made by 2-MEA-induced Fab-arm exchange; IgG1,κ; also called HUM291×153) heavy 1: not shown VL 1: DIQMTQSPSSLSASVGDRVTITCRASQGISSWLAWYQQKPEKAPKSLIYDASSLQSGVPSRFSGSGYGTDFSLTISSLQPEDFAIYYCQQYKSYPITFGQGTRLEIK heavy 2: not shown VL 2: DIQMTQSPSSLSASVGDRVTITCSASSSVSYMNWYQQKPGKAPKRLIYDTSKLASGVPSRFSGSGSGTDFTLTISSLQPEDFATYYCQQWSSNPPTFGGGTKVEIK", "values": [{"measurement": "EC50 (read off the curve)", "setting": "[2]", "value": "~2", "unit": "µg/mL"}]}, {"binder": "IgG1-hu-CLB-T3/4-F405L × IgG1-HER2-169-K409R (bispecific antibody, Made by 2-MEA-induced Fab-arm exchange; IgG1,κ) heavy 1: not shown VL 1: EIVLTQSPATLSLSPGERATLSCRASQSVSSYLAWYQQKPGQAPRLLIYDASNRATGIPARFSGSGSGTDFTLTISSLEPEDFAVYYCQQRSNWPRTFGQGTKVEIK heavy 2: not shown VL 2: EIVLTQSPATLSLSPGERATLSCSASSSVTYVHWYQQKPGQAPRLLIYDTSKLASGIPARFSGSGSGTDFTLTISSLEPEDFAVYYCFQGSGYPLTFGSGTKLEMR", "values": [{"measurement": "EC50 (read off the curve)", "setting": "[7]", "value": "~0.2", "unit": "µg/mL"}]}, {"binder": "huCLB-T3/4-F405L x b12-K409R (bispecific antibody, also called huCLB-T3/4 x b12; CD3xb12 control) heavy chain, CD3 arm (huCLB-T3/4, IgG1-F405L): not shown light chain, CD3 arm: EIVLTQSPATLSLSPGERATLSCSASSSVTYVHWYQQKPGQAPRLLIYDTSKLASGIPARFSGSGSGTDFTLTISSLEPEDFAVYYCFQGSGYPLTFGSGTKLEMR heavy chain, b12 arm (IgG1-K409R): not shown light chain, b12 arm: EIVLTQSPGTLSLSPGERATFSCRSSHSIRSRRVAWYQHKPGQAPRLVIHGVSNRASGISDRFSGSGSGTDFTLTITRVEPEDFALYYCQVYGASSYTFGQGTKLERK", "values": [{"measurement": "EC50 (read off the curve)", "setting": "[7]", "value": "~0.2", "unit": "µg/mL"}]}]}
